Target: WT p45 Tcf1 (UniProt Q00417 1-419)
Assay: EMSA

Chain of WT p45 Tcf1 (Q00417 whole entry): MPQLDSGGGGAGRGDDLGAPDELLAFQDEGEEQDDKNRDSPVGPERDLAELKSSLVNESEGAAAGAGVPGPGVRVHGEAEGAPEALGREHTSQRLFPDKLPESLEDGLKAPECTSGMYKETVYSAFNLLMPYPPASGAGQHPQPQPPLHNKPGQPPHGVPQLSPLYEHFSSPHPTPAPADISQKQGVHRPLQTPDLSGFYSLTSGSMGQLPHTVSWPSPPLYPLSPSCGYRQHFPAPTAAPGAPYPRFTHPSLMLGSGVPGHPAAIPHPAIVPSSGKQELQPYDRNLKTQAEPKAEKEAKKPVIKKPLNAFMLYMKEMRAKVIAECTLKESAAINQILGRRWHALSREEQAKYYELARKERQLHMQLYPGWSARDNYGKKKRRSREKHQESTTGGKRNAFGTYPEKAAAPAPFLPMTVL

B1: TOP probe (dsDNA)
DNA 1: GATCTAGGGCACCCTTTGAAGCTCT
DNA 2: AGAGCTTCAAAGGGTGCCCTAGATC
  binding result: binds

Source: publication PMC4873337
